# Laboratory results reported in patent US20140308285A1 (Amgen, published 2014).
# Experiments:
# [1] = target: T1, human CD3 (CD3 epsilon chain) on human T cells (human, UniProt P07766 22-207); experiment: FACS on isolated human T cells, FITC anti-human light chain secondary antibody
# T1 construct: The assay used isolated human T cells, which carry CD3 as part of the TCR-CD3 complex; also called CD3ε
# Method: The heterodimeric bispecific antibodies described in Example 1 were produced in HEK 293 cells and were assayed by fluorescence activated cell sorting (FACS) for binding to T cells, which express CD3, and to a human ovarian cancer cell line, Ovcar-8, which expresses mesothelin. Briefly, the heterodimeric bispecific antibodies were incubated with about 50,000 Ovcar-8 cells or isolated human or cynomolgus monkey T cells at 4° C. for one hour. The cells were then washed and stained with a fluorescein isothiocyanate (FITC)-conjugated anti-human light chain secondary antibody and analyzed by flow cytometry. The relative binding was represented by the geometric mean of fluorescence intensity.
# [2] = target: T2, folate receptor 1 (FOLR1) on tumor cell lines (Cal-51, T47D) (human, UniProt P15328 25-234); experiment: cell-based or functional assay
# T2 sequence (P15328 25-234, stated change not applied): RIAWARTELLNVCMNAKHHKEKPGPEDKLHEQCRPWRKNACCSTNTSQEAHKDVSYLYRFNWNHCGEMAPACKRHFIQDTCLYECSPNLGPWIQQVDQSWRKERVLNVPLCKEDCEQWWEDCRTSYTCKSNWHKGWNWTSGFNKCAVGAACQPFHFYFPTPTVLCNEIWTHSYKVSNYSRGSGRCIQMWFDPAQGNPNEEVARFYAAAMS
# [3] = target: T2, folate receptor 1 (FOLR1) on tumor cell …; experiment: cell-based or functional assay; remark: listed apart in the source
# T1 sequence (P07766 22-207 limits assumed): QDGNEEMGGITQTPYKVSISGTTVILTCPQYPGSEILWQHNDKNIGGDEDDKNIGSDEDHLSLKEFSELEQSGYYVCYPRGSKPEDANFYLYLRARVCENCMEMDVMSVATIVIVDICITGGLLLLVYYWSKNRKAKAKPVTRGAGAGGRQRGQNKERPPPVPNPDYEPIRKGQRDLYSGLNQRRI
FACS binding (geometric mean) [1],"EC50 of specific lysis, Cal-51 cells (printed Cal-61) with human T cells [2]","EC50 of specific lysis, T47D cells with human T cells [2]","EC50 (pM) for cytokine release, IFN-γ, in presence of T47D cells [3]","EC50 (pM) for cytokine release, IL-2, in presence of T47D cells [3]","EC50 (pM) for cytokine release, IL-10, in presence of T47D cells [3]","EC50 (pM) for cytokine release, IL-13, in presence of T47D cells [3]","EC50 (pM) for cytokine release, TNF-α, in presence of T47D cells [3]",Binder
354,,,,,,,,H71362.2 (bispecific antibody) chain 1: EVQLVESGGGLVKPGVSLRLSCAASGFTFSRYGMNWVRQAPGKGLEWVSSISSSGTYIKYADSVKGRFTISRDNAKNSLNLQMNSLRAEDTAVYYCARDRDRYPLDYWGQGTLVTVSSASTKGPQVQLQESGPGLVKPSETLSLTCTVSGGSIISHYWSWIRQPPGKGLEWIGYIYYSGSTNYNPSLKSRVTISVDTSKNQFSLKLTSVTAADTAVYYCARDGWSAFDYWGQGTLVTVSSASTKGPSVFPLAPCSRSTSESTAALGCLVKDYFPEPVTVSWNSGALTSGVHTFPAVLQSSGLYSLSSVVTVPSSNFGTQTYTCNVDHKPSNTKVDKTVGGGGSAAAVPRDLEVVAATPTSLLISWDAIGLYPYYYRITYGETGGNSPVQEFTVPGSKSTATISGLKPGVDYTITVYAVSGIFGWNNSKPISINYRTGSSDYKDDDDKGSSHHHHHH chain 2: SYELTQPPSVSVSPGQTARITCSGDALPKKYAYWYQQKSGQAPVLVIYEATKRPSGIPERFSGSSSGTMATLTLSGAQVEDEADYYCYSTDSTNYHWVFGGGTKLTVLGTVAAPDIQMTQSPSSLSASVGDRVTITCRASQGIRNALGWYQQKPGKAPKRLIYAASSLQSGVPSRFSGSGSGTEFTLTISSLQPEDFATYYCLQHNSYPRTFGQGTKVEIRRTVAAPSVFIFPPSDEQLKSGTASVVCLLNNFYPREAKVQWKVDNALQSGNSQESVTEQDSKDSTYSLSSTLTLSKADYEKHKVYACEVTHQGLSSPVTKSFNRGEC
,1.21 pM,1.26 pM,27.1 pM,20.3 pM,28.3 pM,27.8 pM,12.5 pM,P136795.3 (bispecific antibody) chain 1: EVQLVESGGGLVQPGGSLKLSCAASGFTFNSYAMNWVRQAPGKGLEWVARIRSKYNNYATYYADSVKGRFTISRDDSKNTAYLQMNNLKTEDTAVYYCVRHGNFGNSYVSWWAYWGQGTLVTVSSGGGGSGGGGSQSVLTQPPSVSEAPRQRVTISCSGSSSNIGNNAVNWYQQLPGKAPKLLIYYDDMLSSGVSDRFSGSKSGTSASLAISGLQSEDEADYYCAAWDDSLNGVVFGGGTKLTVLASTKGPSVFPLAPCSRSTSESTAALGCLVKDYFPEPVTVSWNSGALTSGVHTFPAVLQSSGLYSLSSVVTVPSSNFGTQTYTCNVDHKPSNTKVDKTVGGGGSAAAEPKSSDKTHTCPPCPAPEAAGGPSVFLFPPKPKDTLMISRTPEVTCVVVDVSHEDPEVKFNWYVDGVEVHNAKTKPREEQYNSTYRVVSVLTVLHQDWLNGKEYKCKVSNKALPAPIEKTISKAKGQPREPQVYTLPPSREEMTKNQVSLTCLVKGFYPSDIAVEWESNGQPENNYDTTPPVLDSDGSFFLYSDLTVDKSRWQQGNVFSCSVMHEALHNHYTQKSLSLSPGK chain 2: not shown
179,,,,,,,,P69059.3 (bispecific antibody) chain 1: SYELTQPPSVSVSPGQTARITCSGDALPKKYAYWYQQKSGQAPVLVIYEATKRPSGIPERFSGSSSGTMATLTLSGAQVEDEADYYCYSTDSTNYHWVFGGGTKLTVLGGGGGSGGGGSQVQLQESGPGLVKPSQTLSLTCTVSGGSINNNNYYWTWIRQHPGKGLEWIGYIYYSGSTFYNPSLKSRVTISVDTSKTQFSLKLSSVTAADTAVYYCAREDTMTGLDVWGQGTTVTVSSASTKGPSVFPLAPCSRSTSESTAALGCLVKDYFPEPVTVSWNSGALTSGVHTFPAVLQSSGLYSLSSVVTVPSSNFGTQTYTCNVDHKPSNTKVDKTVGGGGSAAAVPRDLEVVAATPTSLLISWDAPHHGVAYYRITYGETGGNSPVQEFTVPGSKSTATISGLKPGVDYTINVYAVLAYPRGYPLSKPISINYRTDYKDDDDKGSSHHHHHH chain 2: DIQMTQSPSSLSASVGDRVTITCRASQSINNYLNWYQQKPGKAPTLLIYAASSLQSGVPSRFSGSRSGTDFTLTISSLQPEDFAAYFCQQTYSNPTFGQGTKVEVKGGGGSGGGGSEVQLVESGGGLVKPGVSLRLSCAASGFTFSRYSMNWVRQAPGKGLEWVSSISSSGTYIKYADSVKGRFTISRDNAKNSLNLQMNSLRAEDTAVYYCARDRDRYPLDYWGQGTLVTVSSRTVAAPSVFIFPPSDEQLKSGTASVVCLLNNFYPREAKVQWKVDNALQSGNSQESVTEQDSKDSTYSLSSTLTLSKADYEKHKVYACEVTHQGLSSPVTKSFNRGEC
